Our source for the MFI fold over untransduced Dubca cells values is patent US20260027209A1.

The assay deals with human Claudin-6 (human) (UniProt P56747). The assay is described as follows: flow cytometry on Dubca.huCLDN6.Luc cells against Dubca cells.
Chain of UniProt P56747 (P56747 whole entry): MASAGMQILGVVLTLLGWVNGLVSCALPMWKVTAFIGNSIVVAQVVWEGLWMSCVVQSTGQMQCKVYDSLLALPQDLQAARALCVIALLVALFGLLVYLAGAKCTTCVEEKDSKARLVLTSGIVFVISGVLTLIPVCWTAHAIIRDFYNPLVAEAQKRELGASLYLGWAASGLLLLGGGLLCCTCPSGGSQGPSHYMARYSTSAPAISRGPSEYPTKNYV

Regarding “human CLDN6 AlexaFluor 700-conjugated antibody (R&D, Cat. No. FAB3656N)”, the MFI fold over untransduced Dubca cells turned out to be 203 fold.
